Experiment [1] concerns the target α1A-tubulin (α-Tubulin-CT) 399-451 (UniProt Q71U36). Description: GST pull-down, anti-His blot. The conditions noted are these: sites S245.
Experiment [2] deals with polymerized microtubules from Cos7 lysate. Description: tubulin cosedimentation assay, band densitometry of immunoblots. The conditions noted are these: pre-cleared lysates of Cos7 cells expressing FLAG tagged GIV-WT or SD mutant; n = 3; parent: est. 0.90; read off a plot. Background: In western blotting, separated proteins are transferred to a membrane and probed.

On to “GIV (Girdin) 1-440 (from UniProt Q3V6T2) His-GIV-NT WT phosphorylated by AMPK”, for which the “binding against the reference” value in experiment [1] (reference: His-GIV-NT WT, not phosphorylated) is listed as “gained”. Regarding “GIV (Girdin) 1-440 (from UniProt Q3V6T2) S245A, AMPK-treated”, the “binding against the reference” value in experiment [1] (reference: wild type, AMPK-treated) was “lost”.

With “GIV-FLAG WT, full length human GIV (from UniProt Q3V6T2) S245D”, the other: Ratio of GIV (Pellet:Supernatant) in experiment [2] stood at 2.

(Values after PMC5119889.)
